Measurements: patent publication US20210283212A1 (RA PHARMACEUTICALS, published 2021)
Starred links: 1 amine or outer side, 2 acyl side, 3 side chain; linkers in the order of their positions; H or OH if unused. Positions of bridges follow the written chain, without caps; N, C: chain ends. Non-standard residues stand in square brackets, D forms with d. Primed or numbered codes have the meaning given here. *: point of attachment. mXylyl(3) = bridging moiety between the two residues given in brackets; mXylyl″ = bridging moiety between the two marked residues; Trp(7-aza) = N[C@@H](Cc1c[nH]c2ncccc12)C(=O)O; Phe(3-Cl) = N[C@@H](Cc1cccc(Cl)c1)C(=O)O; Tiq1c(1S) = O=C(O)[C@H]1NCCc2ccccc21; pXylylene = c1cc(C[*:2])ccc1C[*:1]; dPhg = N[C@@H](C(=O)O)c1ccccc1; Phg = N[C@H](C(=O)O)c1ccccc1; Tle = CC(C)(C)[C@H](N)C(=O)O; NMeS = CN[C@@H](CO)C(=O)O; hCys = N[C@@H](CCS)C(=O)O; Heptanoyl = CCCCCCC(=O)*; Nle = CCCC[C@H](N)C(=O)O; Nva = CCC[C@H](N)C(=O)O; Sar = CNCC(=O)O

B1: R3101 (peptide)
peptide: VCGTWEYSHGCV
modifications: not fully specified; [mXylyl(2,10)]Ac-Nvl-C-Phg-T-azaTrp-E-Y-(N-Me)S-H-G-C-Nvl-NH2
B2: R3104 (peptide)
peptide: Ac-[Nva][hCys][Phg]T[Trp(7-aza)]EY[NMeS]HC[Nva]-NH2
modifications: linker 2-10 via pXylylene
SMILES: CCC[C@H](NC(=O)[C@@H]1CSCc2ccc(cc2)CSCC[C@H](NC(=O)[C@H](CCC)NC(C)=O)C(=O)N[C@@H](c2ccccc2)C(=O)N[C@@H]([C@@H](C)O)C(=O)N[C@@H](Cc2c[nH]c3ncccc23)C(=O)N[C@@H](CCC(=O)O)C(=O)N[C@@H](Cc2ccc(O)cc2)C(=O)N(C)[C@@H](CO)C(=O)N[C@@H](Cc2c[nH]cn2)C(=O)N1)C(N)=O
B3: R3106 (peptide)
peptide: Ac-[Nva]C[Phg]T[Trp(7-aza)]EY[NMeS]H[hCys][Nva]-NH2
modifications: linker 2-10 via pXylylene
SMILES: CCC[C@H](NC(=O)[C@@H]1CCSCc2ccc(cc2)CSC[C@H](NC(=O)[C@H](CCC)NC(C)=O)C(=O)N[C@@H](c2ccccc2)C(=O)N[C@@H]([C@@H](C)O)C(=O)N[C@@H](Cc2c[nH]c3ncccc23)C(=O)N[C@@H](CCC(=O)O)C(=O)N[C@@H](Cc2ccc(O)cc2)C(=O)N(C)[C@@H](CO)C(=O)N[C@@H](Cc2c[nH]cn2)C(=O)N1)C(N)=O
B4: R3000 (peptide)
peptide: Ac-[Nva]CYKNYH[Trp(7-aza)]EYP[Tle]Y-NH2
SMILES: CCC[C@H](NC(C)=O)C(=O)N[C@@H](CS)C(=O)N[C@@H](Cc1ccc(O)cc1)C(=O)N[C@@H](CCCCN)C(=O)N[C@@H](CC(N)=O)C(=O)N[C@@H](Cc1ccc(O)cc1)C(=O)N[C@@H](Cc1c[nH]cn1)C(=O)N[C@@H](Cc1c[nH]c2ncccc12)C(=O)N[C@@H](CCC(=O)O)C(=O)N[C@@H](Cc1ccc(O)cc1)C(=O)N1CCC[C@H]1C(=O)N[C@H](C(=O)N[C@@H](Cc1ccc(O)cc1)C(N)=O)C(C)(C)C
B5: R3108 (peptide)
peptide: Ac-[Nva][hCys][Phg]T[Trp(7-aza)]EY[NMeS]H[hCys][Nva]-NH2
modifications: linker 2-10 via pXylylene
SMILES: CCC[C@H](NC(=O)[C@@H]1CCSCc2ccc(cc2)CSCC[C@H](NC(=O)[C@H](CCC)NC(C)=O)C(=O)N[C@@H](c2ccccc2)C(=O)N[C@@H]([C@@H](C)O)C(=O)N[C@@H](Cc2c[nH]c3ncccc23)C(=O)N[C@@H](CCC(=O)O)C(=O)N[C@@H](Cc2ccc(O)cc2)C(=O)N(C)[C@@H](CO)C(=O)N[C@@H](Cc2c[nH]cn2)C(=O)N1)C(N)=O

target: human C5 protein (human, UniProt P01031 19-673; P01031 678-1676); assay: cell-based or functional assay

Binder | Avg. IC50, human hemolysis assay [µM]
Heptanoyl-[Nva]C[dPhg]T[Trp(7-aza)]EY[NMeS]AC[Nva]-NH2 (linker 2-10 via mXylyl(3)) [R3136] | > 50
B1 | > 100
Ac-[Nva]CYNN[Tle]E[Trp(7-aza)]ECP[Phg][Tle]-NH2 (cysteine pairing not given here) [R3126] | > 3
B2 | > 2
B3 | > 5
Ac-[Nva][hCys][Phg]T[Trp(7-aza)]EY[NMeS]HC[Nva]-NH2 (linker 2-10 via mXylyl(3)) [R3103] | > 25
Ac-[Nva]C[Phg]T[Trp(7-aza)]EY[NMeS][dA]C[Nva]-NH2 (linker 2-10 via mXylyl(3)) [R3135] | > 25
B4 | > 10
Ac-[Nva]CYE[Sar][Tle]Y[Trp(7-aza)]EC[Nva]P[Nva]-NH2 (linker 2-10 via mXylyl″) [R3009] | > 100
Ac-[Nva]C[Phg]T[Trp(7-aza)]EY[NMeS]HC[Nva]P-NH2 (linker 2-10 via mXylyl″) [R3011] | 0.112
Ac-[Nva]CYE[Sar][Tle]Y[Trp(7-aza)]E[Nva][Nva]PC-NH2 (linker 2-13 via mXylyl″) [R3010] | > 100
Ac-[Nva]C[Phg]T[Trp(7-aza)]EY[NMeS]H[hCys][Nva]-NH2 (linker 2-10 via mXylyl(3)) [R3105] | > 5
Ac-[Nva]C[Phg]T[Trp(7-aza)]EYPHC[Nva]-NH2 (linker 2-10 via mXylyl(3)) [R3102] | 0.978
Ac-[Nva][hCys][Phg]T[Trp(7-aza)]EY[NMeS]H[hCys][Nva]-NH2 (linker 2-10 via mXylyl(3)) [R3107] | > 75
Heptanoyl-C[dPhg]T[Trp(7-aza)]EY[NMeS]AC[Nva]-NH2 (linker 1-9 via mXylyl(3)) [R3137] | > 100
Ac-[Nle]C[Phg]T[Trp(7-aza)]EY[NMeS]HC[Nva]-NH2 (linker 2-10 via mXylyl(3)) [R3112] | > 5
Ac-[Nva]C[Phg]T[Trp(7-aza)]E[Phe(3-Cl)][NMeS]AC[Nva]-NH2 (linker 2-10 via mXylyl(3)) [R3134] | > 5
Ac-[Nva]CYNN[Tle]E[Trp(7-aza)]ECP[Phg][Tle]-NH2 (linker 2-10 via mXylyl(3)) [R3127] | > 75
Ac-[Nva]T[Phg]C[Trp(7-aza)]EY[NMeS]AC[Nva]-NH2 (linker 4-10 via mXylyl(3)) [R3111] | > 5
Ac-[Nva]C[Tiq1c(1S)]T[Trp(7-aza)]EY[NMeS]HC[Nva]-NH2 (linker 2-10 via mXylyl(3)) [R3122] | > 50
Ac-[Nva]C[Phg][dA][Trp(7-aza)]EY[NMeS]HC[Nva]-NH2 (linker 2-10 via mXylyl(3)) [R3133] | > 75
Ac-CVERFCD[Tle]YWEF-NH2 (linker 1-6 via mXylyl(3)) [R3138] | 0.0872
Ac-[Nva]C[Phg]T[Trp(7-aza)]EY[NMeS]HC[Nva]-NH2 (linker 2-10 via mXylyl″) [R3012] | 0.148
B5 | > 75
Ac-Y[Nva]C[Phg]T[Trp(7-aza)]EY[NMeS]HC[Nva]-NH2 (linker 3-11 via mXylyl(3)) [R3113] | > 5
